Measured values reported in patent US20080280828A1.

What was measured:
[1] = biological target: human IgG Fc fragment (ICN) (human); assay: SPR (BIAcore 2000); normalised to binding of fSGED6 to IgG, corrected for relative molar amount of ligand
[2] = biological target: rat recombinant IgE (Serotech) (rat); assay: as above
[3] = biological target: guinea pig IgG (Sigma) (guinea pig); assay: as above
[4] = biological target: rabbit IgG F(ab')2 fragment (ICN) (rabbit); assay: as above
[5] = biological target: human IgG Fc fragment (ICN) (human); assay: SPR (BIAcore 2000), Ig immobilised on CM5 chip, tick sample as analyte
[6] = biological target: rat recombinant IgE (Serotech) (rat); assay: as above
[7] = biological target: guinea pig IgG (Sigma) (guinea pig); assay: as above
[8] = biological target: rabbit IgG F(ab')2 fragment (ICN) (rabbit); assay: as above
[9] = biological target: rat recombinant IgE (Serotech) (rat); assay: SPR (BIAcore 2000); ratio of RBA on IgE to RBA on guinea pig IgG
[10] = biological target: human IgG Fc fragment (ICN) (human); assay: SPR (BIAcore 2000); RBA further normalised to amount of protein against fSGED6
[11] = biological target: rat recombinant IgE (Serotech) (rat); assay: as above
[12] = biological target: guinea pig IgG (Sigma) (guinea pig); assay: as above
[13] = biological target: rabbit IgG F(ab')2 fragment (ICN) (rabbit); assay: as above
[14] = biological target: human IgG Fc fragment (ICN) (human); assay: SPR (BIAcore 2000); ratio of RBA on Fc to RBA on F(ab')2

rat recombinant IgE (Serotech) (rat), sequence (P01855 whole entry, the tested form may be a part): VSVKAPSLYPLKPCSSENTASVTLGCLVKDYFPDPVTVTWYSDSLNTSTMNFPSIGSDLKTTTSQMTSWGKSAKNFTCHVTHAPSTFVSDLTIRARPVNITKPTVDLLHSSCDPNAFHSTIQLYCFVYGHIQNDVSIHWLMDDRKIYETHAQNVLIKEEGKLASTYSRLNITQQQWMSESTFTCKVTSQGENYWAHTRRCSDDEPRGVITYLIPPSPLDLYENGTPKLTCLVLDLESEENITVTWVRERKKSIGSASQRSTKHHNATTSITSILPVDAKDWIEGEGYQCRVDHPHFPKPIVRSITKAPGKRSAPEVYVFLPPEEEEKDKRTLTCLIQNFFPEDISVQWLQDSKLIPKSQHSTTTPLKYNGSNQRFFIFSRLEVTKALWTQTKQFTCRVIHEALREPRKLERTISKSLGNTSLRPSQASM

Substance | Relative binding activity (RBA) [1] | Relative binding activity (RBA) [2] | Relative binding activity (RBA) [3] | Relative binding activity (RBA) [4] | Yield-binding (RU2) [5] [RU] | Yield-binding (RU2) [6] [RU] | Yield-binding (RU2) [7] [RU] | Yield-binding (RU2) [8] [RU] | RBAIgE/RBAIgG [9] | RBA/mg protein [10] | RBA/mg protein [11] | RBA/mg protein [12] | RBA/mg protein [13] | RBAFc/RBAF(ab′)2 [14]
partially fed (day 6) female tick salivary gland extract | 1.1 | 1.3 | 1 | 0 | 748 | 283 | 263 | 13 | 1.2 | 1.1 | 1.3 | 1 | 0 | –
partially fed (day 6) male tick salivary gland extract | 2.4 | 3.6 | 2.7 | 2.2 | 1720 | 762 | 719 | 823 | 1.2 | 4.9 | 7.3 | 5.5 | 4.5 | 1.1
partially fed (day 7), dopamine-stimulated female tick saliva | 8.2 | 23.6 | 19.4 | 7.5 | 5830 | 4960 | 5100 | 2770 | 1.2 | 328 | 943 | 775 | 301 | 1.1
